Laboratory results reported in a protein production outcome set (Wang et al. 2014).

Test: label from the status in PepcDB records

For “MIYFTGDTHFADPRVLRIDRRPFPDMASHDVTLIRNWNEIVDAQDDIWHLGDFMSFRGGDCDQLLSMLNGRKHLIIGNNDPSTTTEATGWASVQHYSEMTLDDHLLILCHYPFRTWNKMGRKSINLHGHSHGRLKPLPRQYDVGVDAQRLRPVSLQTLLSTKPES”, the protein production was “failed”.
In the case of “MSDFWENELVEIAAYYSVAVLCLVLFLTVFELVTAYKNWEEIQKGNLAVAMATGGKILGIANVFQHSISQHNSLLQMIGWGVYGFVMLLISYFIFEFLTPRFKIDQEIENDNRAVGFISFVISVGLSFVVAAGI”, the protein production is reported as “failed”.
In the case of “MFWTELCFILVALMIGARIGGVFLGMVGGLGVGVMVFIFGLTPSTPPIDVILIILSVVLAAASLQASGGLDLLVKLAEKILRRHPRYITLLAPFICYIFTFMSGTGHVVYSLLPVISEVARDSGIRPERPLSISVIASQQAITASPISAAMAAMIGLMAPLGVSISTIMMICVPATLIGVAMGAIATFNKGKELKDDPEYQRRLAEGLIKPAQKESKNTVVTSRAKLSVALFLTSAIVIVLLGLIPALRPMVETAKGLQPLSMSAAIQITMLSFACLIVLLCRPQVDQIISGTVFRAGALAIVCAFGLAWMSETFVNGHIALIKAEVQTLLQQHTWLIAIMMFFVSAMVSSQAATTLILLPLGLALGLPAYALIGSWPAVNGYFFIPVAGQCLAALAFDDTGTTRIGKYVLNHSFMRPGLVNVIVSVIVGLLIGKMVLA”, the protein production is reported as “failed”.
With “MLQQQRTNSRGEKYVIGPTGAPLTLADLPPAETQRWVIRRKAEVVAAVRGGLLSLDEACDRYKLTNDEFLSWQQSIDRHGLAGLRTTRIQQYRLEHHHHHH” the protein production was “not failed”.
In the case of “MKTKQTDELLAKDEQYVWHGMRPFSPNSTMVGAKAEGCWVEDIQGKRYLDGMSGLWCVNSGYGRKELAEAAYKQLQTLSYFPMSQSHEPAIKLAEKLNEWLGGEYVIFFSNSGSEANETAFKIARQYYAQKGEPHRYKFMSRYRGYHGNTMATMAATGQAQRRYQYEPFASGFLHVTPPDCYRMPGIERENIYDVECVKEVDRVMTWELSETIAAFIMEPIITGGGILMPPQDYMKAVHETCQKHGALLISDEVICGFGRTGKAFGFMNYDVKPDIITMAKGITSAYLPLSATAVKREIYEAFKGKGEYEFFRHINTFGGNPAACALALKNLEIIENENLIERSAQMGSLLLEQLKEEIGEHPLVGDIRGKGLLVGIELVNDKETKEPIDNDKIASVVNACKEKGLIIGRNGMTTAGYNNILTLAPPLVISSEEIAFVIGTLKTAMERI”, the protein production is reported as “failed”.
For “KIDFISDVSCPWCVIGLRALDQALEALGDEVQAQIHFQPFELNPNMPAEGQDIKEHIAEKYGSTPEQIEAIHETIRERGAELGFTFGKGERRIYNTFDAHRLLHWAEQEGKQPALKQALFVAYFSELKDPSSHQTLADVAQKVGLDRLRAQAILDSDEFASEVREAEQLWTSRGITSVPTMVFNDQYAVSGGQPVEVFVSAIRQMLSES”, the protein production was “failed”.
With “MDFGKPNQVTVNYLDENKTPIAPSLYLSGLFNEAYNVPMKKIKGYTLLKYDSEILGVFTESPQTINIIYQKKAPEQALEHHHHHH” the protein production was “failed”.
For “MKQPATPNAAEETKSEQKQKSKKFPTPTELISHYQKRGLEPAEASIKVIEDLQNALVRVVSSSRNASSKDKLVTDARKIDAINGRLAVVDAKLETKPGYVETFALGLASGATLNGISAVWPHVTRGIGQIWSAVRIGTDPSSTS”, the protein production was “failed”.
For “MILMMENRMPKGIQKTETSEKNIEKVLNAYDKQQHHHQDDLAIQYLPAVRAMAFRLKERLPSSIDFNDLVSIGTEELIKLARRYESALNDSFWGYAKTRVNGAMLDYLRSLDVISRSSRKLIKSIDIEITKHLNEHGKEPSDAYLAQTLGENIEKIKEAKTASDIYALVPIDEQFNAIEQDEITKKIEAEELLEHVQKALNQMSEREQILIQLYYFEELNLSEIKEILGITESRISQIIKEVIKKVRKSLGVDHG”, the protein production was “failed”.
In the case of “MTGQVLDGRYRLVERLGSGGMGEVWRGHDERLGRTVAIKLIHPGASVDDEAVALFRREAQVTARLAGHPNIVILYDYGTDGDTVYTVMELVTGCSLSALLRERGRLPVELAVRWGAHVCAGLAAAHAVGVVHRDIKPSNLMVVDADAPDGGTVKLVDFGIAGFHEAALHQRTLPPTGEPFGTPLYVSPEQIQMLPVGAFSDLYSFGAVLFHMLTGQPPFHAAEPMPVLRMHLTEPPPNPAELRPDVPAELAELVLMLLAKDPGQRPDNALWVRDRLLSLSGTSPPASAASPTESASREAQMRRLEQSWVEAERLAAAGQAAAAAQRIGALLGELAAIYGADHPATLEARRRHASLTSRAGDPERAAALFDTLVADLDRIYGHAHPETYAARHHLAAATEQAGRRAEAAVLRSELVDALTAQYGPQAARLLHPRLFYAVDLAEAGDFTGAEKLLRDLAAALEQQLGAHTPALQIVHHYLDAAAAFASETAGAEPPHPNRFRESTRLDGRPPPHPLRQRLTRWLRSTTEL”, the protein production is reported as “failed”.
